Molecular target: recombinant human IL-17A (human) (UniProt Q16552)
Experiment: cell-based or functional assay

Chain of recombinant human IL-17A (human) (Q16552 20-155 limits assumed): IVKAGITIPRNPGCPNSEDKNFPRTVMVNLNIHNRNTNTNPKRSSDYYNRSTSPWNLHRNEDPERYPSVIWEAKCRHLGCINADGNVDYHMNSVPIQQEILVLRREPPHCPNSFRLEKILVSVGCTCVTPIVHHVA

IC50 of inhibition of IL-17A induced IL-6 production in NHDF cells (IL-17A 50 ng/ml): 1 nM | IC50 value (nM), IL-6 production by NHDF cells with IL-17A (1 ng/ml) and TNF alpha: 0.61 nM
Substance: human IL-17A receptor-Fc chimera (R&D Systems) (from UniProt Q96F46 33-320) (Fc fusion)
